Legend:
Experiment in all cases: fluorescence polarisation
[1] = biological target: talin-1 (TLN1) PTB domain, tag cleaved (FP) (human)
[2] = biological target: SARS-CoV-2 NSP3 ADRP domain, tag cleaved (FP) (SARS-CoV-2)
[3] = biological target: SARS-CoV-2 NSP3 UBl1 domain, tag cleaved (FP) (SARS-CoV-2)
[4] = biological target: SARS-CoV-2 NSP3 SUD-M domain, tag cleaved (FP) (SARS-CoV-2)
[5] = biological target: G3BP1 NTF2-like domain, tag cleaved (FP) (human, UniProt Q13283 11-133)
[6] = biological target: SARS-CoV-2 non-structural protein (NSP) 9, tag cleaved (FP) (SARS-CoV-2)

Chain of talin-1 (TLN1) PTB domain, tag cleaved (FP) (human) (Q9Y490 whole entry, the tested form may be a part): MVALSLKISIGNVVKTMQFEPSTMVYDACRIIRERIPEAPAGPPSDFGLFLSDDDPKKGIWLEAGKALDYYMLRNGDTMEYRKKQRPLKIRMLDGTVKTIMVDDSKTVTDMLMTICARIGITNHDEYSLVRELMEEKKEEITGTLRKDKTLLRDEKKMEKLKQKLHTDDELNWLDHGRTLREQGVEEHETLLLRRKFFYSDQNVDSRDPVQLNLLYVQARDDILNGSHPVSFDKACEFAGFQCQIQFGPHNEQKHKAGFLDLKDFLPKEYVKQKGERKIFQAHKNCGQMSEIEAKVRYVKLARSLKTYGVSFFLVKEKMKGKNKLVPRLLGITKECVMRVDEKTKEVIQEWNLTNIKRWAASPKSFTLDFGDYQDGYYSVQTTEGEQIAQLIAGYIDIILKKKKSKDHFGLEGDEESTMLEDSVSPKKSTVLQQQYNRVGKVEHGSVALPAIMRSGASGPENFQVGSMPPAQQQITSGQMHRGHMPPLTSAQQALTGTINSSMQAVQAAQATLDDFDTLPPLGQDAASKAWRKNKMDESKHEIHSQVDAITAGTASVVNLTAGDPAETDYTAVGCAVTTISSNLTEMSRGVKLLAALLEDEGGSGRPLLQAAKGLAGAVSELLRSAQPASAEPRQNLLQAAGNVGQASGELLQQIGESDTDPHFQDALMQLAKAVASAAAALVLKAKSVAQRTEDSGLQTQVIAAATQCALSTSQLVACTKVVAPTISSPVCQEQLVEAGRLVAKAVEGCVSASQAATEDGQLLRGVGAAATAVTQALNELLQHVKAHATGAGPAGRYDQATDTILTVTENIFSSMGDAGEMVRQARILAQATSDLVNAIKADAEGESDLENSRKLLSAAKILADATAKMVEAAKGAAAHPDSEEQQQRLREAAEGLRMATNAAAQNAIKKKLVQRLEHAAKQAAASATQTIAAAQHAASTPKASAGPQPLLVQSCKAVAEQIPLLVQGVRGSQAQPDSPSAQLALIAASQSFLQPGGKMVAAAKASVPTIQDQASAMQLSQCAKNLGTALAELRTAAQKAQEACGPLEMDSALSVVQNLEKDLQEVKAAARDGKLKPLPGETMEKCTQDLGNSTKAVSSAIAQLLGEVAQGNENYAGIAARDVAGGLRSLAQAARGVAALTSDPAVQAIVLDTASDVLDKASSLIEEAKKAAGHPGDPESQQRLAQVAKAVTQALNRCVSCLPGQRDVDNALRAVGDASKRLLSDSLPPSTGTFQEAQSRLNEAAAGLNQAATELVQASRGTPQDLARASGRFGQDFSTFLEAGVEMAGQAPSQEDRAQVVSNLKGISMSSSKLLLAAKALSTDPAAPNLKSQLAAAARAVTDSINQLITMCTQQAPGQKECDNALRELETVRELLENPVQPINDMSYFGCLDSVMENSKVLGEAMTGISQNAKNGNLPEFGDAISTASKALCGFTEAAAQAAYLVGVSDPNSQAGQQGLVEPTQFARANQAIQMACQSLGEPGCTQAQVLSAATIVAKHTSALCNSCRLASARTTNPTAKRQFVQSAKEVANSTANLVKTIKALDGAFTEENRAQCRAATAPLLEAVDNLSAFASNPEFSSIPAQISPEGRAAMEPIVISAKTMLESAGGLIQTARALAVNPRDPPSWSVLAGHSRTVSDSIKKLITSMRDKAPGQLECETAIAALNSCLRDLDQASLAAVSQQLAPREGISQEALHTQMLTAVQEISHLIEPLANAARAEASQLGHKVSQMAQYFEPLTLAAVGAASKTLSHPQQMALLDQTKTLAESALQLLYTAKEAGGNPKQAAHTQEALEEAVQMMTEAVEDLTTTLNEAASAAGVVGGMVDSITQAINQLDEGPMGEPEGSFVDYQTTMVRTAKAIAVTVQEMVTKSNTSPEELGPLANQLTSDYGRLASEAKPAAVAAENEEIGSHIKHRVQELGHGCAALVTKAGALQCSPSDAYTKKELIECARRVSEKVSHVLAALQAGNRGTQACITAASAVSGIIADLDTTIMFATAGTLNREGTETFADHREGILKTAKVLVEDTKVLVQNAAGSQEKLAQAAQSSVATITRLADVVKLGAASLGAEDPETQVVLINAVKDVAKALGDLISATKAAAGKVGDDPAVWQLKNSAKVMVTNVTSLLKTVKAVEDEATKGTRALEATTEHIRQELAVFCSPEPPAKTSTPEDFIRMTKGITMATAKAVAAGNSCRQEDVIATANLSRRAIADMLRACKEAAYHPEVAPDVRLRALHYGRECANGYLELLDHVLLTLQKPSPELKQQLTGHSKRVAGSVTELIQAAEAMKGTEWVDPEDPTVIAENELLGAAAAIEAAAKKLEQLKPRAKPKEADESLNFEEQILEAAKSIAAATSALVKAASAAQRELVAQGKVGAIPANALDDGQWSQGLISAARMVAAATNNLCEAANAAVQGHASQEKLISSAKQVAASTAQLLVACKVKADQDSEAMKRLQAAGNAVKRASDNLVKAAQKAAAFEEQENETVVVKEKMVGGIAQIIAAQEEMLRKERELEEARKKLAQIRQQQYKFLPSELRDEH
Chain of G3BP1 NTF2-like domain, tag cleaved (FP) (Q13283 11-133): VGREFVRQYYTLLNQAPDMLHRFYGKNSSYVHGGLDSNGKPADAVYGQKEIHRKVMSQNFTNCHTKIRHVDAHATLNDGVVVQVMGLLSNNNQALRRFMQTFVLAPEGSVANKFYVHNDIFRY

TPTE2 92-107 F97W peptide (from UniProt Q6XPS3 92-107)
Kd [1]: 0.1 µM

TPTE2 92-107 F97Y peptide (from UniProt Q6XPS3 92-107)
Kd [1]: 150 µM

TPTE2 92-107 I104A peptide (from UniProt Q6XPS3 92-107)
Kd [1]: 18 µM

TPTE2 92-107 S100N peptide (from UniProt Q6XPS3 92-107)
Kd [1]: 1.7 µM

TPTE2 92-107 Y103W peptide (from UniProt Q6XPS3 92-107)
Kd [1]: 22 µM

wild-type MBOAT1 16-31 peptide (from UniProt Q6ZNC8 16-31)
Kd [2]: 49 µM

wild-type NCOA2 1073-1088 peptide (from UniProt Q15596 1073-1088)
Kd [3]: 39 µM

wild-type TPTE2 92-107 peptide
Kd [1]: 4.9 µM

B1: wild-type PRDM14 peptide (FP) (peptide)
chain: QFTEEDLHFVLYGVTPSL
modifications: not checked
Kd [4]: 74 µM

B2: wildtype SARS-CoV-2 N 12-26 peptide (peptide)
peptide: APRITFGGPSDSTGS
Kd [5]: 2.3 µM

B3: wild-type NOTCH4 peptide (FP) (peptide)
chain: QGAWLGAPEPWEPL
modifications: not checked
Kd [6]: 72 µM

Source: doi:10.1101/2024.08.06.606761 (bioRxiv, 2024)
